For assay [1], the target named is T1, chemokine receptor 1 (CCR1) (UniProt P56482 1-355). The experiment in a line: competition with 125I-Rantes binding to CCR1.
For assay [2], the target named is T1, chemokine receptor 1 (CCR1). As to the kind of experiment: competition with 0.1 nM 125I-Rantes, membranes of CHO-K1 cells expressing CCR1, filtration.
The target in assay [3] is T2, chemokine receptor CCR3 (UniProt P51677 1-355, limits assumed).
T2 construct: whole, on cells
T2 sequence (looked up): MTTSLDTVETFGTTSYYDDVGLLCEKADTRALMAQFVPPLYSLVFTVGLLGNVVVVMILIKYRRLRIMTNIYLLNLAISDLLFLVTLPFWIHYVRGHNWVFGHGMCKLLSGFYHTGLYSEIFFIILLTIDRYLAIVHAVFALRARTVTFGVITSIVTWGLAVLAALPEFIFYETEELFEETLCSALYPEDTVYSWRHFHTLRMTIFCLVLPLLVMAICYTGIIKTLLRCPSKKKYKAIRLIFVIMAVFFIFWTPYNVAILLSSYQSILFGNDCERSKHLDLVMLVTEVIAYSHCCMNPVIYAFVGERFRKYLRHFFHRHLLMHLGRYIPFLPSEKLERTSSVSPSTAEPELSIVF
As to the kind of experiment: competition with 0.1 nM 125I-Eotaxin, membranes of CHO-K1 cells expressing CCR3, filtration. The procedure:
(§1) For determination of its binding properties, CHO-K1 cells were used which were stably transfected with the chemokine receptors CCR1, CCR3, CCR5. Therefore, crude membrane extracts prepared from the CHO-K1 cell lines expressing the various GPC were used in radioligand binding assays. Competition binding assays were performed in Minisorp tubes (Nunc, Roskilde, Denmark) in a total volume of 100 μl containing 0.1 nM iodinated ligand as tracer, variable concentrations of competitors and defined amount of membranes. Total binding was measured in the absence of competitor and non-specific binding was measured with a 100-fold excess, of unlabelled ligand. Samples were incubated for 90 minutes at 25° C. then filtered through GF/B filters presoaked in 0.3% polyethylenenimine. Filters were counted in a gamma scintillation counter (Packard). Binding parameters were determined with the PRISM software (Graphpad software, San Diego, Calif.) using non-linear regression applied to a one site competition model.
The processed chemokine PHC-1 was a strong competitor of ¹²⁵I-Rantes binding to CCR1 with half-maximal inhibitory concentration of 2.3±0.7 nM. (Ki±SEM).

For assay [4], the target named is T1, chemokine receptor 1 (CCR1). The experiment in a line: radioligand competition binding on CCR1.
For assay [5], the target named is T3, chemokine receptor 5 (CCR5) (human, UniProt P51681 1-352).
T3 construct: whole, on cells
T3 sequence (P51681 whole entry): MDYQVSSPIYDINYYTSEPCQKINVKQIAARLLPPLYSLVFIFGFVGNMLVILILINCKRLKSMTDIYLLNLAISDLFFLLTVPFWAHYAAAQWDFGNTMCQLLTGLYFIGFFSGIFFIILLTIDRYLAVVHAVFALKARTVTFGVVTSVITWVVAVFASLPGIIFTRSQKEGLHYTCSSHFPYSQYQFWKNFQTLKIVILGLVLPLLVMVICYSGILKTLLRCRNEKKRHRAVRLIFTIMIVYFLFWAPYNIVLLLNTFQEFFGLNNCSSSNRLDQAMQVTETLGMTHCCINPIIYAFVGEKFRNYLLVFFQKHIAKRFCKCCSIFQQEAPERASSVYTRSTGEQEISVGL
As to the kind of experiment: radioligand competition binding as in Example 4. The protocol:
as §1
FIG. 6 represents the compound PHC-1, full size HCC-1 and reference chemokines tested on CCR1, CCR3 and CCR5. Competition binding assays were performed with [¹²⁵I]-RANTES for CCR1, [¹²⁵I]-Eotaxin for CCR3 and [¹²⁵I]-MIP-1, for CCR5. PHC-1, HCC1, MIP-1, RANTES, Eotaxin and MCP-4 were used as competitors. […]
In general terms: Loss of bound radioactivity is the signal in a displacement assay; it reports binding, not function.

For assay [6], the target named is T3, chemokine receptor 5 (CCR5). As to the kind of experiment: competition with [125I]-MIP-β1, CHO-K1 membranes. The protocol: as §1
FIG. 6 represents the compound PHC-1, full size HCC-1 and reference chemokines tested on CCR1, CCR3 and CCR5. Competition binding assays were performed with [¹²⁵I]-RANTES for CCR1, [¹²⁵I]-Eotaxin for CCR3 and [¹²⁵I]-MIP-1, for CCR5. PHC-1, HCC1, MIP-1, RANTES, Eotaxin and MCP-4 were used as competitors. FIGS. 3 and 4 show the binding of additional chemokine compounds of the invention to the CCR5 and CCR1 respectively. Competition assays were performed with [¹²⁵I]-MIP-β1 for CCR5, and [¹²⁵I]-MIP-α1 for CCR1. Each of the chemokine compounds tested was capable of binding both the CCR5 and CCR1 receptors.

*: point of attachment. Nonanoyl = CCCCCCCCC(=O)*

T1 sequence (P56482 whole entry): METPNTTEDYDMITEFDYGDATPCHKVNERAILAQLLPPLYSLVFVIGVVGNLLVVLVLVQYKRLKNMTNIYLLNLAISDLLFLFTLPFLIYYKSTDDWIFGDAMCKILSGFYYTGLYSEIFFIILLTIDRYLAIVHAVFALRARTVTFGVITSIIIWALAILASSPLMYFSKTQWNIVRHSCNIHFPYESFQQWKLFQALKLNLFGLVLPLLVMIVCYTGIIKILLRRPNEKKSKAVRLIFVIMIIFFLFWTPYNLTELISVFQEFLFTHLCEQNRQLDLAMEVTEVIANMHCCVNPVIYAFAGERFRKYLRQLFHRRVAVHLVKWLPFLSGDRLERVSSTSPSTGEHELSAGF

B1: PHC-1 (HCC-1[9-74]) (ligand)
chain: GPYHPSECCFTYTTYKIPRQRIMDYYETNSQCSKPGIVFITKRGHSVCTNPSDKWVQDYIKDMKEN
notes: Purified from human hemofiltrate or made by tryptic digestion of HCC-1 1-74; also called processed chemokine PHC-1; HCC-1, residues 9-74
What is called Ki is a dissociation constant, usually derived from enzyme kinetics or from competition with a known ligand. Broadly, the IC50 is the concentration that gives 50% inhibition. A higher IC50 goes with a need for much substance. On to B1, for which the affinity in assay [1], expressed as Ki, was 23 µM. Further, the results for the IC50 in assay [2] and in assay [3] were 2.3 nM and 78 nM, respectively.

B2: full size HCC-1 (HCC-1, residues 1-74) (ligand)
chain: TKTESSSRGPYHPSECCFTYTTYKIPRQRIMDYYETNSQCSKPGIVFITKRGHSVCTNPSDKWVQDYIKDMKEN
notes: The 74-residue chemokine, Mr 8673; also called full-length HCC-1; HCC-1, 1-74
The molecule B2 registered a Ki in assay [4] of 100 nM.

B3: NNY-HCC-1[10-74] (ligand)
chain: Nonanoyl-PYHPSECCFTYTTYKIPRQRIMDYYETNSQCSKPGIVFITKRGHSVCTNPSDKWVQDYIKDMKEN
modifications: ends and bridges not checked
notes: An N-terminally modified analog of HCC-1[10-74]; also called nonanoyl-HCC-1[10-74]
As to B3, in assay [5], the binding result is given as “binds”.

B4: HCC-1[7-74] (ligand)
chain: SRGPYHPSECCFTYTTYKIPRQRIMDYYETNSQCSKPGIVFITKRGHSVCTNPSDKWVQDYIKDMKEN
notes: Synthetic, oxidatively folded
As to B4, the binding result in assay [6] was “binds”.

B5: HCC-1[8-74] (ligand)
chain: RGPYHPSECCFTYTTYKIPRQRIMDYYETNSQCSKPGIVFITKRGHSVCTNPSDKWVQDYIKDMKEN
notes: Synthetic, oxidatively folded
In the case of B5, the binding result in assay [6] is on record as “binds”.

B6: HCC-1[10-74] (ligand)
chain: PYHPSECCFTYTTYKIPRQRIMDYYETNSQCSKPGIVFITKRGHSVCTNPSDKWVQDYIKDMKEN
notes: Synthetic, oxidatively folded
In the case of B6, the binding result in assay [6] is listed as “binds”.

B7: HCC-1[11-74] (ligand)
chain: YHPSECCFTYTTYKIPRQRIMDYYETNSQCSKPGIVFITKRGHSVCTNPSDKWVQDYIKDMKEN
notes: Synthetic, oxidatively folded
For B7, the binding result in assay [6] was “binds”.
